Experimental data as given in patent US20070244042A1 (University of Texas, published 2007).

T1: E-domain of betaglycan (BGe) (Rattus norvegicus, UniProt P26342 24-409)
T1 construct: also called sRIIIe; sBGe
T1 sequence: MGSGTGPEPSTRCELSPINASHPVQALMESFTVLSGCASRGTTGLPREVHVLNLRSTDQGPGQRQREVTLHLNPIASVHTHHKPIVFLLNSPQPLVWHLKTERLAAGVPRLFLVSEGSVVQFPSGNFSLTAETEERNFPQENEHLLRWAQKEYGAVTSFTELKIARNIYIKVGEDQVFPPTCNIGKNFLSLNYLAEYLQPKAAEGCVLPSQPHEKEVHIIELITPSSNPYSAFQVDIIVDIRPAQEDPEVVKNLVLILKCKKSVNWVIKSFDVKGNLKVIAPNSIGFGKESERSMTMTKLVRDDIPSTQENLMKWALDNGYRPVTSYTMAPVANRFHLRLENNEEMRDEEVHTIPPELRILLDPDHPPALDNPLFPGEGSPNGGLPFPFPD

B1: TGFβ type II receptor extracellular domain (sRII) (receptor)
chain: MIPPHVQKSVNNDMIVTDNNGAVKFPQLCKFCDVRFSTCDNQKSCMSNCSITSICEKPQEVCVAVWRKNDENITLETVCHDPKLPYHDFILEDAASPKCIMKEKKKPGETFFMCSCSSDECNDNIIFSEEYNTSNPD
notes: also called recombinant sRII; extracellular domain of RII
B2: TGFβ2 (ligand)
chain: ALDAAYCFRNVQDNCCLRPLYIDFKRDLGWKWIHEPKGYNANFCAGACPYLWSSDTQHSRVLSLYNTINPEASASPCCVSQDLEPLTILYYIGKTPKIEQLSNMIVKSCKCS
notes: also called TGFβ2 homodimer; transforming growth factor beta 2

Experiments:
[1] = target: T1, E-domain of betaglycan (BGe); assay: electrophoretic mobility shift, 12% native polyacrylamide gel pH 8.8, Coomassie staining
From the text: (§1) Referring now to FIG. 1, binding of the E-domain of betaglycan (BGe) and the TGFβ type II receptor extracellular domain (sRII) to TGFβ2. A. Electrophoretic mobility shift assay in which an increasing amount of sRII has been added to a fixed amount of TGFβ2 and then applied to 12% native polyacryamide gel at pH 8.8. The relative molar amounts of TGFβ2 and sRII used in the assay are indicated above the gel. The protein bands were visualized by Coomassie blue staining. B. Electrophoretic mobility shift assay in which an increasing amount of BGe has been added to a fixed amount of TGFβ2 and then applied to 12% native polyacryamide gel at pH 8.8. The relative molar amounts of TGFβ2 and BGe (sRIIIe) used in the assay are indicated above the gel. The protein bands were visualized by Coomassie blue staining. The arrow labeled BC designates the binary complex formed between TGFβ2 and BGe. C. […] Purified TGFβ2 and BGe have also been applied to the SDS gel as controls. Relative molar amounts are indicated above the gel. The protein bands were visualized by Coomassie blue staining. On the basis of the relative amounts of TGFβ2 and BGe (sRIIIe) in the binary complex, together with the relative band intensities for the TGFβ2 and BGe (sRIIIe) controls, we tentatively conclude that BGe and the TGFβ2 homodimer bind with 1:1 stochiometry.

[2] = target: B1; assay: as above
From the text: as §1

binding result [1]	binding result [2]	Binder
no binding		B1
	no binding	B2
